According to patent US20110229461A1 (UCB, published 2011):

Assays:
[1] = target: T1, human PD-1 (recombinant, titrated in BIAcore) (human, UniProt Q15116 25-170); experiment: SPR BIAcore 3000; antibody captured by anti-human Fc, human PD-1 titrated;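 note: CM5 chip with amine-coupled goat anti-human Fc F(ab′)₂, HBS-EP running buffer at 10 µL/min, blank-surface-subtracted sensorgrams fitted in BIAevaluation 3.2 for kinetic constants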
T1 construct: extracellular domain; also called recombinant human PD-1 extracellular domain

[2] = target: T2, human PD-1 on cells (transfected HEK293 cells; human T cells) (human, UniProt Q15116 25-288); experiment: flow cytometry on activated human T cells; unconstrained curve; unconstrained curve
T2 construct: whole, on cells; HEK293 cells transiently transfected with human PD-1 DNA; also called PD-1 expressing HEK293 cells; PD-1 transfected HEK cells

[3] = target: T2, human PD-1 on cells (transfected HEK293 …); experiment: flow cytometry on activated human T cells; top of curve constrained; top part of curve constrained to ~45 geo mean

T2 sequence (Q15116 25-288): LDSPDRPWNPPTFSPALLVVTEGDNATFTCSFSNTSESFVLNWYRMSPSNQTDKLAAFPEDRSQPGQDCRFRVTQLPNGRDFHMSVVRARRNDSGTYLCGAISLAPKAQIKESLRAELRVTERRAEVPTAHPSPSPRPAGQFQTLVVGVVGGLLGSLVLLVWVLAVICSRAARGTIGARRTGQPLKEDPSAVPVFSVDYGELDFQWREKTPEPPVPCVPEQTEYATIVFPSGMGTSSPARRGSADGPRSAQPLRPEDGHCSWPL
T1 sequence (Q15116 25-170): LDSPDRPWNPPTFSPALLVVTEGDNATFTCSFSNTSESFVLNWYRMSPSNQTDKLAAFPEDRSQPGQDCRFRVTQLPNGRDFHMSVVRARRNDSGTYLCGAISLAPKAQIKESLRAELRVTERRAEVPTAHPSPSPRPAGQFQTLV

- Kd [1]: 5.98 nM
- EC50 [2]: 1.2 µg/mL
- EC50 [3]: 3.61 µg/mL
B1: 949 chimeric (949 variable regions with human IgG4 constant domains) (antibody, V domains shown)
VH: QVQLQQSGAELVKPGASVKMSCKAFGYTFTTYPIEWMKQNHGKSLEWIGNFHPYNDDTKYNEKFKGKAKLTVEKSSTTVYLELSRLTSDDSAVYYCARENYGSHGGFVYWGQGTLVTVS
VL: ENVLTQSPAIMSASPGEKVTMTCRASSSVISSYLHWYQQKSGASPKLWIYSTSNLASGVPDRFSGSGSGTSYSLTISSVEAEDAATYYCQQYNGYPLTFGAGTKLEIK
notes: also called original CA949 construct, cLcH
